Numbering of substitutions follows the chain as printed.
B1: MPK9 (antibody, V domains shown)
VH: EVQLVESGGGLVKPGGSLRLSCAASGFTISGYGMSWFRQAPGKGLEWVSSISASSSYIYYADSTKGRFTISRDNGKQSLYLQMNSLRAEDTAVYYCATSPIEPPYFDLWGRGTLVTVSS
VL: QSVLTQPPSVSGAPGQRVTISCTGSSSNIGAGYDVHWYQQLPGKAPKLLIYGNNNRPSGVPDRFSGSNSGASASLAITGLQAEDEADYFCQSYDRRLSGPVFGRGTKLTVL
notes: VH and VL only
B2: MPK10 (antibody, V domains shown)
VH: EVQLVQSGGGLVKPGGSLRLSCAASGFRFSGYFMIWIRQAPGKGLEWISFISGGSSYTNYADSVKGRFTISRDNVQNTLFLDMNSLRAEDTGVYFCATEQVPTPGPFDLWGQGSLVTVSS
VL: QSVLTQPPSVSGVPGQRVIISCTGSSSNIGAGYDVHWYQQFPGRSPTLLIYRNTNRPSGVPDRFSGFQSGSSASLAITGLQAEDEADYYCQSFDRTLDGWAFGGGTKVTVL
notes: VH and VL only
B3: MPK18 (antibody, V domains shown)
VH: EVQLVESGGGLVKPGGSLRLSCAASGFTISGYYMIWIRQAPGKGLEWISYISGSSSYTNFGASVKGRFTISRDNGQNTVHLQMTNLRADDTALYYCATEQTPSPGPFDLWGQGTLVTVSS
VL: QSVVTQPPSVSGAPGQRVTISCSGTSSNIGAGYDVHWYQQFPGTSPKLLISRNFNRPSGVPARFSGSKSGSSASLAIAGLQAEDEADYYCQSYDRSLGGWVFGGGTKVTVL
notes: VH and VL only
B4: MPK30-v1 (antibody, V domains shown)
VH: EVQLVESGGGLVKPGGSLRLSCAASGFTISGYYMIWIRQAPGKGLEWISFISASSSYINYADSVRGRFTISRDNGRSTVYLQMNSLRPEDTAVYYCATEQVPSPGPFDLWGQGTLVTVSS
VL: B3 VL with V4L, S23T, T44R, S51Y, F54T, A62D, G98D, K107T, V108L
notes: VH and VL only
B5: MPK36-v3 (antibody, V domains shown)
VH: EVQLVESGGGLVKPGGSLRLSCAASFTISGYYMIWIRQAPGKGLEWISYISGSSTYTNYADSVKGRFTISRDNGQNTLYLHMTSLRADDTALYYCATEQTPSPGPFDLWGQGTLVTVSS
VL: B3 VL with S2T, S51Y, A62D, R95K, G98D
notes: VH and VL only
B6: MPK67 (antibody, V domains shown)
VH: B3 VH with F60Y
VL: B3 VL with V4L, A82P
notes: VH and VL only
B7: MPK73 (antibody, V domains shown)
VH: EVQLVESGGGLVKPGGSLTLSCAASGFSISGYGMNWVRQAPGRGLEWVASISASSTYIYYADSMKGRFTISRDNGKTSLYLQMKSLRAEDTAVYYCARAPIEPPYFDLWGRGTLVTVSS
VL: B1 VL with S26N, Q40H, L48V, T78S, V101I, R104G
notes: VH and VL only
B8: MPK86 (antibody, V domains shown)
VH: EVQLVESGGGLVKPGGSLRLSCAASGFSISGYYMIWIRQAPGRGLEWISDISASSTYTDYADSVKGRFTISRDNGQNTVYLQMNNLRADDTALYYCATEQTPSPGPFDLWGQGTLVTVSS
VL: QSVVTQPPSVSGAPGQRVIISCSGRSSNIGAGYDVHWYQHFPGTSPKLLIYRNTNRPSGVPDRFSASTSATSASLAITGLQADDEADYYCQSYDRNLGGWVFGGGTKLTVL
notes: VH and VL only
B9: MPK92 (antibody, V domains shown)
VH: EVQLVESGGGLVKPGGSLRLSCEASGISLSGYYMIWIRQAPGKGLEWISSISSSSNYIDYADSVRGRFTISRHNGQNTLYLQMNSLRVEDTAVYFCATEQTPSPGPFELWGQGILVTVSS
VL: QSVLTQPPSVSGAPGQRVTIFCTGTTSNIGTGYDVHWYQQFPGTSPKLLIYRNTNRPSGVPDRFSGSRSGSSASLAIAGLQAEDEADYYCQSFDRSVNGWIFGGGTKVTVL
notes: VH and VL only
B10: MPK99 (antibody, V domains shown)
VH: B8 VH with S28T, A40S, R43K, T56S, N85S, D89E, L93V, T101V
VL: B3 VL with Q16L, A31R, T44Q, S51Y, F54T, A62D, S67F, K107R, V108L, T109I
notes: VH and VL only
B11: MPK102 (antibody, V domains shown)
VH: EVQLVESGGGLVKPRGSLRLSCAASGFTFSGYFMIWIRQAPGKGLEWVSYISGSSTYTNYADSVKGRFTISRDNGRNTLYLQMNSLRADDTAVYYCATEQTPSPGPFDLWGQGTLVTVSS
VL: QSVLTQPPSVSGAPGQRVTISCTGTSSNIGAGYDVHWYQQFPGTSPKLLIFRNTNRPSGVSDRFSGSKSGSSASLAIAGLQAEDESDYYCQSYDRGLDGWVFGGGTRLTVL
notes: VH and VL only
B12: MPK108 (antibody, V domains shown)
VH: EVQLVESGGGLVRPGQSLRLSCTASGFSISGYFMIWVRQAPGKGLEWISYVSASSTYTNYADSVRGRFTTSRDNGQNSLFLQMDSLTAEDTGVYFCAREQTPSPGPFDSWGQGVLVTVSS
VL: QSVLTQPPSLSGAPGQRITISCTGTSSNIGAGYDVHWYQYLPGTAPKLVIYRNTNRPSGVSGRFSGSKSGTSASLAITGLQTEDEADYYCQSYDKKLDGWVFGGGTKLTVL
notes: VH and VL only
B13: MPK126 (antibody, V domains shown)
VH: B8 VH with L18M, F27V, S28T, I29L, R43K, I70V, G75S, N85S, D89E, L93V
VL: QSVLTQPPSVSGAPGQRVTISCTGSSSNVGAGYDVHWYQQFPGTSPKLLIYRNTNRPSGVPDRFSGFKSGTSASLAITGLEAEDEADYYCQSYDRSLSGWVFGAGTKLTVL
notes: VH and VL only
B14: MPK127 (antibody, V domains shown)
VH: QVQLVISGGGLVKPGGSLRLSCAASGFRIDSFSLNWVRQAPGKGLEWLASVSASSSYIDYRDSVAGRFTISRDNAQNSLYLQMDTLRAEDTAVYYCARTNGYETGSFDVWGQGTLVTVAS
VL: B1 VL with Y51N, G52A, A71T, F89Y, R95K, R96T, P100Y, R104L, K107T, L108V
notes: VH and VL only
B15: MPK129 (antibody, V domains shown)
VH: B9 VH with I27F, S53G, S55G, R65K, H73D, Q76H, F95Y, E108D, L109H, I114T
VL: B9 VL with S2T, L4V, F21S, T26S, R68K, F93Y, N98S, I101V, V108L
notes: VH and VL only
B16: MPK130 (antibody, V domains shown)
VH: EVQLVESGGGLVKPGGSLTLSCEASGFSISGYYMIWVRQAPGKGLEWVSSISASDTYIDYAVSVQGRFTISRHNTKNSLYLQMSSLRVEDTGVYYCTREKVPSPGPFDCWGQGTLVTVSS
VL: QSVLTQPPSVSGAPGQRITISCTGTSSNIGAGYDVHWYQHLPGAAPRLLIYVNTNRPSGVPDRFSGARSGTSASLAITGLQAEDEADYYCQSYDRSLGGWAFGEGTKVTVL
notes: VH and VL only
B17: MPK132-v1 (antibody, V domains shown)
VH: B9 VH with R65K
VL: B9 VL with L4V, T26S, R68K, F93Y, N98S, I101V, V108L
notes: VH and VL only
B18: MPK133 (antibody, V domains shown)
VH: QVQLVQSGGGLVKPGGSLRLSCAASEFSFSGYFMIWIRQAPGKGLEWISYISGSSTYTNYADSVKGRFTISRDNAQNTLYLEMNSLRAEDTGVYYCATEQVPSPGPFDLWGQGTLVTVSS
VL: B2 VL with V13A, I19T, F67S, F93Y, D98S
notes: VH and VL only
B19: MPK136 (antibody, V domains shown)
VH: EVQLVESGGGLVKPGGSLRLSCEASGFSLSGYYMIWIRQAPGKGLEWISSISGSGNYINYADSVKGRFTVSRDNGHNTLYLQMNSLRVEDTAVYYCATEQTPSPGPFDHWGQGTLVTVSS
VL: QVQLVQPPSVSGAPGQRVSISCTGTSSNIGTGYDVHWYQQFPGTSPKLLIYRNTNRPSGVPDRFSGSKSGSSASLAIAGLQAEDEADYYCQSYDRSVSGWVFGGGTKLTVL
notes: VH and VL only
B20: MPK141 (antibody, V domains shown)
VH: EVQLVESGGGLVKPGGSLRLSCAASGFTISGYYMTWIRQAPGKGLEWISYISGSSSYTNYADSVKGRFTISRDNGRNSVYLQMNSLRADDTGVYYCAREETPSPGPFDSWGQGILVTVSS
VL: QSVLTQPPSVSGAPGQRIIISCIGSSSNIGTGYDVHWYQQLPGRAPKLLISRNTNRPSGIPDRFSGSKSGTSASLAITGLQADDEADYYCQSYDRGLDGWVFGGGTKLTVL
notes: VH and VL only
B21: MPK142-v1 (antibody, V domains shown)
VH: EVQLVESGGGLVEPGGSLRLSCAASGFTISGYGMSWVRQAPGKGLEWVSSISASSSYIYYGDAMKGRITISRDNGWNSMYLQMNSLRTEDTAVYYCATAPIEPPYFDLWGRGTLVTVSS
VL: B1 VL with L41F, L48V, S65A, G66A, D87A, R104G
notes: VH and VL only
B22: MPK142-v2 (antibody, V domains shown)
VH: B21 VH
VL: DIQLTQTPTSLSASVGDRVTFTCRASQNIGFYLNWYQQKPGKAPRLLIYGASNLQSGVPSRFSGSGAGTDFSLTISSLQPEDFATYYCQQSFNTPRTFGQGTKVEIN
notes: VH and VL only
B23: MPK144 (antibody, V domains shown)
VH: EVQLVESGGGLVRPGGSLRLSCAASGFTFTGYYMMWIRQAPGKGLEWISDISSSSSYTNYADSVKGRFAISRDNAQNTLYLQMNSLRAEDTAVYYCATEQVPSPGPFDLWGQGTLVTVSS
VL: B13 VL with V29F, F67S, E81Q, S98T, A104G
notes: VH and VL only

These binders were tested against RSV fusion glycoprotein (RSV-F) (respiratory syncytial virus) (assay: SPR; F protein loaded on streptavidin sensors, mAb in solution).
Procedure: Binding affinity of mAbs for RSV-F protein, MPV-F D280 protein, and MPV-F N280 F variant protein was assessed using surface plasmon resonance (SPR).

Question: B1 was tested. Which Kd did it give?
Answer: 0.04 nM

Question: Which Kd does the source give for B2 here?
Answer: 0.012 nM

Question: Which Kd does the source give for B3 here?
Answer: 0.001 nM

Question: With B4 as the binder, how does the Kd read?
Answer: 0.01 nM

Question: For B5, which Kd is on record?
Answer: 0.0056 nM

Question: B6 was tested. Which Kd did it give?
Answer: 0.0059 nM

Question: For B7, which Kd is on record?
Answer: 0.012 nM

Question: How did the Kd turn out when B8 was run?
Answer: 0.001 nM

Question: B9 was tested. Which Kd did it give?
Answer: 0.098 nM

Question: Which Kd does the source give for B10 here?
Answer: 0.15 nM

Question: B11 was tested. Which Kd did it give?
Answer: 0.096 nM

Question: With B12 as the binder, how does the Kd read?
Answer: 0.58 nM

Question: B13 was tested. Which Kd did it give?
Answer: 0.001 nM

Question: How did the Kd turn out when B14 was run?
Answer: 1.7 nM

Question: For B15, which Kd is on record?
Answer: 0.083 nM

Question: With B16 as the binder, how does the Kd read?
Answer: 0.016 nM

Question: With B17 as the binder, how does the Kd read?
Answer: 0.47 nM

Question: With B18 as the binder, how does the Kd read?
Answer: 0.001 nM

Question: Which Kd does the source give for B19 here?
Answer: 0.001 nM

Question: B20 was tested. Which Kd did it give?
Answer: 0.13 nM

Question: With B21 as the binder, how does the Kd read?
Answer: 100 nM

Question: With B22 as the binder, how does the Kd read?
Answer: 16 nM

Question: With B23 as the binder, how does the Kd read?
Answer: 0.001 nM

— US20260028391A1 (HUMABS BIOMED, published 2026)
